US20260132200A1 (Regeneron, published 2026)

Legend:
[1] = target: T1, human CD20 expressed on Raji cells (CD3-, CD20+ human B-cell line) (human, UniProt P11836 1-297); experiment: cell-based or functional assay
T1 sequence: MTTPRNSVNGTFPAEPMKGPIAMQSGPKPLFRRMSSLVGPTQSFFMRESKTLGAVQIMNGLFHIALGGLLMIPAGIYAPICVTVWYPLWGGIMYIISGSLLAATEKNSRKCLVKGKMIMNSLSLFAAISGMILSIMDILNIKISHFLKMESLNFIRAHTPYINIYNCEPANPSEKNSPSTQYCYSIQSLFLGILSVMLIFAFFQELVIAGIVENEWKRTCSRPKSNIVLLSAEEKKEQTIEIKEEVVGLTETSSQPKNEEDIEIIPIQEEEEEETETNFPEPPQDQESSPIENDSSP

[2] = target: T2, human CD3 expressed on cells (Jurkat, a CD3+ human T-cell line; human T cells) (human, UniProt P07766 23-126; P04234 22-100); experiment: FACS on Jurkat cells
T2 construct: also called FACS JURKAT
T2 chain 1: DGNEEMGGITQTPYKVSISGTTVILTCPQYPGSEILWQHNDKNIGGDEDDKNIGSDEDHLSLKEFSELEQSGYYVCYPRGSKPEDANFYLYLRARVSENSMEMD
T2 chain 2: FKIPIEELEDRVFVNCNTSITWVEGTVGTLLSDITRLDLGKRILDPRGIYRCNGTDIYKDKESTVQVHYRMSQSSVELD
Method: (§1) CD20×CD3 bispecific antibodies and Control constructs, as set forth in Example 1, were tested via FACS for their ability to bind to Jurkat (CD3+, CD20− human T-cell line), Raji (CD3−, CD20+ Human B-cell line), or cynomolgus PBMCs (“mkT cells”).
(§2) FACS data was acquired using the following protocol: Cells at 2×10⁵ per well were incubated with serially diluted antibodies for 30 min on ice. Post incubation, cells were washed and appropriate secondary (Jurkat, RAJI cells) or cocktail of secondary antibodies (for cyno PBMC) was added and incubated for an additional 30 minutes. After incubation, cells were washed, re-suspended in cold PBS containing 1% BSA and analyzed by flow cytometry on a BD FACS Canto II. Jurkat and Raji cells were gated by side and forward scatters, while cynomolgus T cells were also gated in a CD2+CD4+ population. The EC₅₀s for cell binding titration were determined using Prism software with values calculated using a 4-parameter non-linear regression analysis.

[3] = target: T3, cynomolgus monkey CD3 on monkey T cells (CD2+CD4+ cells of cynomolgus PBMCs) (cynomolgus monkey, UniProt Q95LI5 22-198); experiment: FACS on cynomolgus PBMCs, CD2+CD4+ T cells
T3 construct: whole, on cells; also called mkT cells; monkey PBMCs
Method: as §1, §2

T3 sequence (Q95LI5 22-198): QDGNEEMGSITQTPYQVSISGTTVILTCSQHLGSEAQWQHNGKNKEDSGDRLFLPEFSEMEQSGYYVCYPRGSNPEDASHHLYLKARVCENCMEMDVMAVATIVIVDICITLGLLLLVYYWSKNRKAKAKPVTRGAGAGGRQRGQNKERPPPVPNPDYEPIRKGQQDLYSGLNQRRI

B1: Control IV: monoclonal anti-CD20 antibody 3B9-10 (antibody, V domains shown)
VH: EVQLVESGGGLVQPGRSLRLSCVASGFTFNDYAMHWVRQAPGKGLEWVSVISWNSDSIGYADSVKGRFTISRDNAKNSLYLQMHSLRAEDTALYYCAKDNHYGSGSYYYYQYGMDVWGQGTTVTVSS
VL: EIVMTQSPATLSVSPGERATLSCRASQSVSSNLAWYQQKPGQAPRLLIYGTSTRATGIPARFSGSGSGTEFTLTISSLQSEDFAVYYCQQYNNWPLTFGGGTKVEIK
notes: also called Control IV (anti-CD20)
In the case of B1, the “CDC EC50, Raji” value [1] is reported as 0.247 nM, the “CDC EC50, Raji SCID1” value [1] is reported as 51.9 nM and the “CDC EC50, Raji SCID2” value [1] is reported as 0.229 nM. The “CDC EC50, Raji SCID3” value [1] was 5.71 nM, the “CDC EC50, Raji SCID4” value [1] was 1.14 nM and the binding result [2] was “no binding”. B1: no binding [3].
